# Experimental data reported in patent US20090092614A1 (Biogen, published 2009).
# Read-outs that look alike come from different tables or passages of the source.
# Columns and labels:
# sIGF-1R(1-903) [1] = target: T1, sIGF-1R(1-903) (human, UniProt P08069 31-933); assay: ITC, 37 °C
# T1 construct: also called soluble recombinant human IGF-1R ectodomain
# Procedure: (§1) These protein solutions were adjusted to the concentrations listed above by dialyzing in PBS. ITC experiments were performed on an ITC200 microcalorimeter (MicroCal, LLC). […] A four minute equilibration period was used between all injections with an initial delay of 60 seconds. […] The lower limit of the protein concentrations capable of generating sufficient signal by calorimetry to measure a change in heat was ˜2-4 micromolar protein.
# sIGF-1R(1-903) [2] = target: T1, sIGF-1R(1-903); assay: ITC, 15 °C
# Procedure: as §1
# human IGF-1R(1-903)-Fc [3] = target: T2, human IGF-1R(1-903)-Fc (human, UniProt P08069 31-933); assay: blocking ELISA, competitor 320 nM IGF-1
# T2 construct: Made by Biogen Idec; also called hIGF-1R-Fc; IGF-1R-Fc
# sIGF-1R(1-903) [4] = target: T1, sIGF-1R(1-903); assay: ITC, 5 °C
# Procedure: as §1
# [5] = target: human IGF-1R (full length, on cells) (human, UniProt P08069 31-740; P08069 741-1367); assay: cell-based or functional assay
# human IGF-1R(1-903)-Fc [6] = target: T2, human IGF-1R(1-903)-Fc; assay: blocking ELISA, competitor 640 nM IGF-2
# sIGF-1R(1-903) [7] = target: T1, sIGF-1R(1-903); assay: ITC, 25 °C
# Procedure: as §1
# human IGF-1R(1-903)-Fc [8] = target: T2, human IGF-1R(1-903)-Fc; assay: competition ELISA: biotinylated hIGF-1R-Fc on streptavidin plate, antibody titrated in 320 nM human IGF-1 His (blocked ligand), anti-His-HRP detection
# human IGF-1R(1-903)-Fc [9] = target: T2, human IGF-1R(1-903)-Fc; assay: ELISA on plate-coated soluble IGF-1R-Fc, goat anti-human kappa-HRP
# Procedure: (§2) The absorbance was measured at 450 nm, background 540 nm for TMB using the Molecular Devices plate reader. Data was analyzed using the SOFTMAX PRO software package version 4.3 LS (Molecular Devices Corp.).
# human IGF-1R(1-903)-Fc [10] = target: T2, human IGF-1R(1-903)-Fc; assay: competition ELISA: biotinylated hIGF-1R-Fc on streptavidin plate, M14-G11 titrated in 20 nM human IGF-1 His (blocked ligand)
# human IGF-1R(1-903)-Fc [11] = target: T2, human IGF-1R(1-903)-Fc; assay: competition ELISA: biotinylated hIGF-1R-Fc on streptavidin plate, M14-G11 titrated in 320 nM human IGF-1 His (blocked ligand)
# [12] = target: T3, human IGF-1R(1-902)-His10 (human, UniProt P08069 31-932); assay: ELISA on plate-coated rh-IGF-1R, goat anti-human kappa-HRPO
# T3 construct: Bought (R&D Systems); also called hIGF-1R-His10; IGF-1R-His
# Procedure: (§3) ELISA assays were performed to determine specific binding of the Fab fragment antibodies to soluble IGF-1R over the insulin receptor. […] Color development was stopped by addition of 4NH₂SO₄ and optical density is measured at 450 nm using a Molecular Devices plate reader and binding curves are generated.
# human INSR(28-956)-His10 [13] = target: T4, human INSR(28-956)-His10 (human, UniProt P06213 28-956); assay: ELISA on plate-coated rh-INSR, goat anti-human kappa-HRPO
# T4 construct: range 28-956; Bought (R&D Systems); also called rh-INSR (R&D 1544-IR); INSR-His10
# Procedure: as §3
# human IGF-1R(1-903)-Fc [14] = target: T2, human IGF-1R(1-903)-Fc; assay: ELISA on plate-coated soluble IGF-1R-Fc, goat anti-human kappa-HRP; remark: listed apart in the source
# Procedure: as §2
# hIGF-1R-Fc mutant SD015 [15] = target: T5, hIGF-1R-Fc mutant SD015 (human, UniProt P08069 31-933); assay: SPR, Fab over captured mutant
# T5 construct: Positions count without the signal peptide; also called H464E; not shown: human IgG1 Fc tag
# hIGF-1R-Fc mutant SD012 = target: T6, hIGF-1R-Fc mutant SD012 (human, UniProt P08069 31-933); assay: SPR
# T6 construct: Positions count without the 30-residue signal peptide; also called E303G; not shown: human IgG1 Fc tag
# hIGF-1R-Fc mutant SD008 = target: T7, hIGF-1R-Fc mutant SD008 (human, UniProt P08069 31-933); assay: SPR
# T7 construct: Positions count without the signal peptide; also called S257F; not shown: human IgG1 Fc tag
# hIGF-1R-Fc mutant SD109 = target: T8, hIGF-1R-Fc mutant SD109 (human, UniProt P08069 31-933); assay: KD grade of mutant hIGF-1R-Fc; S = binding to antibody was ablated by mutation
# T8 construct: build as m36 with the substitutions; also called Y482A R483W; not shown: C-terminal human IgG1-Fc tag and its junction
# hIGF-1R-Fc mutant SD104 = target: T9, hIGF-1R-Fc mutant SD104 (human, UniProt P08069 31-933); assay: as above
# T9 construct: build as m36 with the substitution; also called H464A; not shown: C-terminal human IgG1-Fc tag and its junction
# hIGF-1R-Fc mutant SD015 [16] = target: T5, hIGF-1R-Fc mutant SD015; assay: as above
# hIGF-1R-Fc mutant SD113 = target: T10, hIGF-1R-Fc mutant SD113 (human, UniProt P08069 31-933); assay: as above
# T10 construct: build as m36 with the substitutions; also called E570A I571T
# hIGF-1R-Fc mutant SD110 = target: T11, hIGF-1R-Fc mutant SD110 (human, UniProt P08069 31-933); assay: as above
# T11 construct: build as m36 with the substitution; also called E533H; not shown: C-terminal human IgG1 Fc tag
# hIGF-1R-Fc mutant SD102 = target: T12, hIGF-1R-Fc mutant SD102 (human, UniProt P08069 31-933); assay: as above
# T12 construct: build as m36 with the substitutions; also called E459A S460A
# hIGF-1R-Fc mutant SD103 = target: T13, hIGF-1R-Fc mutant SD103 (human, UniProt P08069 31-933); assay: as above
# T13 construct: build as m36 with the substitutions; also called D461A V462T
# hIGF-1R-Fc mutant SD108 = target: T14, hIGF-1R-Fc mutant SD108 (human, UniProt P08069 31-933); assay: as above
# T14 construct: build as m36 with the substitution; also called H480E; not shown: C-terminal human IgG1-Fc tag and its junction
# human INSR(28-956)-His10 [17] = target: T4, human INSR(28-956)-His10; assay: ELISA, rh-INSR coated
# Procedure: as §3
# T2 sequence (P08069 31-933): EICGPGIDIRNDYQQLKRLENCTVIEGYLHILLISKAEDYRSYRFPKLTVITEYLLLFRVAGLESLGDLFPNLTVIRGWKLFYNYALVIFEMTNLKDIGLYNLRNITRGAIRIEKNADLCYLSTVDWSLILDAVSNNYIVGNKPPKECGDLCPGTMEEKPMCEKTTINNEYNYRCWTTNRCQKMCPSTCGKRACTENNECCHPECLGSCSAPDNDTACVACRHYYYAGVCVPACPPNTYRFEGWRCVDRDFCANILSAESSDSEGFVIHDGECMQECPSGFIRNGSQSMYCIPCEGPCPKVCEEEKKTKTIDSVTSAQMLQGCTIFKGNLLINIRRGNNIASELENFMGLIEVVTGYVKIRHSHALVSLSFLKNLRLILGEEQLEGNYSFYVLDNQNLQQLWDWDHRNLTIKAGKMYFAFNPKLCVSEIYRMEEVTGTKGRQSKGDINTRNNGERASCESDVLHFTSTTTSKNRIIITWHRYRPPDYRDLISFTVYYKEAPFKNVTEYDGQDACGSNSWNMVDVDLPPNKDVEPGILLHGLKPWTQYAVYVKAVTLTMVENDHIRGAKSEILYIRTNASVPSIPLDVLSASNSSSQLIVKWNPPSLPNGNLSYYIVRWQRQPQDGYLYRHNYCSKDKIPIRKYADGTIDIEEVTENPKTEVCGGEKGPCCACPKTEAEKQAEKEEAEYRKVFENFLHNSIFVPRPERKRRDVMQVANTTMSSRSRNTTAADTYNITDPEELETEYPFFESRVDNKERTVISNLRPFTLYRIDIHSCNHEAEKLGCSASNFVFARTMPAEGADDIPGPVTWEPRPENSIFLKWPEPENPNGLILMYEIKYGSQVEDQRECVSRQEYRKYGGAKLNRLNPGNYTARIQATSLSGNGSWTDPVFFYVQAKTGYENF
# T1 sequence (P08069 31-933): as above
# T4 sequence (P06213 other isoform, or with tags, fused parts or gaps limits assumed): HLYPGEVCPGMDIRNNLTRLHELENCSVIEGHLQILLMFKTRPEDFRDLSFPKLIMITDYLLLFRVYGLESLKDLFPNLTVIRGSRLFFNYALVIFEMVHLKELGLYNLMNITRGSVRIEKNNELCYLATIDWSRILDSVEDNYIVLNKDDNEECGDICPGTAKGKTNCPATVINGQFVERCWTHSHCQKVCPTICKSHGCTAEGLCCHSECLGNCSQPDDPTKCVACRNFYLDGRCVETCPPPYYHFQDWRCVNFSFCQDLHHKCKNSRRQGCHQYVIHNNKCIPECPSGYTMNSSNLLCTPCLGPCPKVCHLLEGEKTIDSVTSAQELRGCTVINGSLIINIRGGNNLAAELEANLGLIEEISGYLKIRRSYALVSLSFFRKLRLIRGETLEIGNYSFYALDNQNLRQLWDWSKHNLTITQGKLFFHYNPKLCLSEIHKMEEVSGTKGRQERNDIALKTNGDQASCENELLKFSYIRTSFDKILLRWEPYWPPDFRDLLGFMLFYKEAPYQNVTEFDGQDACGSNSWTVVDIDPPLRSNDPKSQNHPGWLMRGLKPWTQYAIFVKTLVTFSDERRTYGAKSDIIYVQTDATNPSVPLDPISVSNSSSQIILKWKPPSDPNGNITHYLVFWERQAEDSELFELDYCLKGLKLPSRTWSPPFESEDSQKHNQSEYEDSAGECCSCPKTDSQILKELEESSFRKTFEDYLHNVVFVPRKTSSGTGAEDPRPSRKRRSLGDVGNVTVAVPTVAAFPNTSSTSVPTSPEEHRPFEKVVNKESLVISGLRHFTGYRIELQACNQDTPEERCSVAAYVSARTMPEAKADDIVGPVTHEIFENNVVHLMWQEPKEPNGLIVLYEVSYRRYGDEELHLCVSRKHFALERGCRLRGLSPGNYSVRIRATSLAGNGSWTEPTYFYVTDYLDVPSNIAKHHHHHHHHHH
# T5 sequence (P08069 other isoform, or with tags, fused parts or gaps mutant): as the sequence (P08069 31-933) above, with H464E counted along it
# human IGF-1R (full length, on cells), sequence (P08069 31-740, chain 1 of 2): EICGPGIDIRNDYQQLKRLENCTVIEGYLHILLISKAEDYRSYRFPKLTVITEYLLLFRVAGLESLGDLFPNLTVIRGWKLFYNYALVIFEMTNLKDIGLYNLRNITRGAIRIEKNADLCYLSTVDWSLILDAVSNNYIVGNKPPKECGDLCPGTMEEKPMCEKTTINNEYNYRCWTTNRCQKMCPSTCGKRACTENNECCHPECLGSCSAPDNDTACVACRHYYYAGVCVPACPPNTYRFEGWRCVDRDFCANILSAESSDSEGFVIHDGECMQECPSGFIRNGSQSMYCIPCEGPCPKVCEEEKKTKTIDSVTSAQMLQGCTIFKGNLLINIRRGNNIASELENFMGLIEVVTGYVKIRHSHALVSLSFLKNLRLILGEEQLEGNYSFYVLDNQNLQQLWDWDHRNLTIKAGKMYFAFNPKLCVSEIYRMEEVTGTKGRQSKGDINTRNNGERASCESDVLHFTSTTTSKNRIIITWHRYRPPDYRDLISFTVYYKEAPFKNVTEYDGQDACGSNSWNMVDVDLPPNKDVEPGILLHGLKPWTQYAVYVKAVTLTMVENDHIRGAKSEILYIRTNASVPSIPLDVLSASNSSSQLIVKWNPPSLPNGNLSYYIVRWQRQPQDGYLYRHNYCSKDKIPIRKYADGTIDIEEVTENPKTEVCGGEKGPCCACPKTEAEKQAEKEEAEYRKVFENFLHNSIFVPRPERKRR
# human IGF-1R (full length, on cells), sequence (P08069 741-1367, chain 2 of 2): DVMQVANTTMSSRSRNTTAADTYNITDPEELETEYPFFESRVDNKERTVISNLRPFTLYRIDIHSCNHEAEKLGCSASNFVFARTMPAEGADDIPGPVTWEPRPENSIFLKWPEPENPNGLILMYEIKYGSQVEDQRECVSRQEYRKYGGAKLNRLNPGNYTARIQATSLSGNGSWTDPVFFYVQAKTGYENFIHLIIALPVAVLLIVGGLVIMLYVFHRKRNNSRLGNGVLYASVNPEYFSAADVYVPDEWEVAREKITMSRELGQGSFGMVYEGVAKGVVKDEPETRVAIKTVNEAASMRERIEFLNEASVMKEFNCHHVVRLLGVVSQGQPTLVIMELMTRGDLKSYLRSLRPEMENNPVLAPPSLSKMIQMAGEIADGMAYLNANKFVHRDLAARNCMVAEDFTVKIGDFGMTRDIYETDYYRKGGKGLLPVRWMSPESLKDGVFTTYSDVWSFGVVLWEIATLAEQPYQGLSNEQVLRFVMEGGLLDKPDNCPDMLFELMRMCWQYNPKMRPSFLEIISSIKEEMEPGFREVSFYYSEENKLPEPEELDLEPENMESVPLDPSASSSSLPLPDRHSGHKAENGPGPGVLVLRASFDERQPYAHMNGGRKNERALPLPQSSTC
binder,measurement,setting,value
"M13-C06.G4.P.agly (antibody, human IgG4 S228P, kappa, V domains shown, Aglycosylated human IgG4 (S228P, T299A, EU numbering), kappa; also called M13-C06_Ab; Eu-C06) VH: EVQLLESGGGLVQPGGSLRLSCAASGFTFSIYRMQWVRQAPGKGLEWVSGISPSGGTTWYADSVKGRFTISRDNSKNTLYLQMNSLRAEDTAVYYCARWSGGSGYAFDIWGQGTMVTVSS VL: DIQMTQSPLSLSASVGDRVTITCQASRDIRNYLNWYQQKPGKAPKLLIYDASSLQTGVPSRFGGSGSGTDFSFTIGSLQPEDIATYYCQQFDSLPHTFGQGTKLEIKR",stoichiometry of binding (N),sIGF-1R(1-903) [1],0.97
same,ΔH°,sIGF-1R(1-903) [1],-29.2 kcal/mol
same,stoichiometry of binding (N),sIGF-1R(1-903) [2],0.98
same,ΔH°,sIGF-1R(1-903) [2],-14.4 kcal/mol
same,% IGF-1 inhibition upon antibody saturation,human IGF-1R(1-903)-Fc [3],25%
same,stoichiometry of binding (N),sIGF-1R(1-903) [4],0.89
same,ΔH°,sIGF-1R(1-903) [4],-11.3 kcal/mol
same,Inhibition of IGF-1 stimulated phosphorylation of IGF-1R (IC50 nM),[5],< 0.13 nM
same,Inhibition of IGF-2 stimulated phosphorylation of IGF-1R (IC50 nM),[5],< 0.63 nM
same,% IGF-2 inhibition upon antibody saturation,human IGF-1R(1-903)-Fc [6],16%
same,stoichiometry of binding (N),sIGF-1R(1-903) [7],0.98
same,ΔH°,sIGF-1R(1-903) [7],-20.1 kcal/mol
"M14-G11.G4.P.agly (antibody, human IgG4 S228P, kappa, V domains shown, Aglycosylated human IgG4 (S228P, T299A), kappa; also called M14-G11_Ab; Biotin-G11) VH: EVQLLESGGGLVQPGGSLRLSCAASGFTFSNYPMYWVRQAPGKGLEWVSRISSSGGRTVYADSVKGRFTISRDNSKNTLYLQMNSLRAEDTAVYYCARDRWSRSAAEYGLGGYWGQGTLVTVSS VL: not shown",stoichiometry of binding (N),sIGF-1R(1-903) [1],0.7
same,ΔH°,sIGF-1R(1-903) [1],-39.5 kcal/mol
same,% IGF-1 inhibition upon antibody saturation,human IGF-1R(1-903)-Fc [3],1%
same,IC50 (read off the curve),human IGF-1R(1-903)-Fc [8],~6 nM
same,EC50 (read off the curve),human IGF-1R(1-903)-Fc [9],~0.05 nM
same,stoichiometry of binding (N),sIGF-1R(1-903) [4],0.9
same,ΔH°,sIGF-1R(1-903) [4],-6.7 kcal/mol
same,IC50 (read off the curve),human IGF-1R(1-903)-Fc [10],~2 nM
same,% IGF-2 inhibition upon antibody saturation,human IGF-1R(1-903)-Fc [6],1%
same,stoichiometry of binding (N),sIGF-1R(1-903) [7],0.91
same,ΔH°,sIGF-1R(1-903) [7],-26.6 kcal/mol
same,IC50 (read off the curve),human IGF-1R(1-903)-Fc [11],~6 nM
"M14-B01 Fab (Fab, V domains shown, Human kappa Fab from a phage library) VH: EVQLLESGGGLVQPGGSLRLSCAASGFTFSNYHMAWVRQAPGKGLEWVSVISPTGGRTTYADSVKGRFTISRDNSKNTLYLQMNSLRAEDTATYYCARAGYSYGYGYFDYWGQGTLVTVSS VL: DIQMTQFPATLSVSPGERATLSCRASQSVMRNLAWYQQKPGQPPRLLIYGASKRATGIPARFSGSGSGTAFTLTISNLEPEDFAVYYCHQRSTWPLGTFGPGTKLEAK",EC50 (read off the curve),[12],~5 nM
same,binding result,human INSR(28-956)-His10 [13],no binding
"M14-G11.G4.P (antibody, human IgG4, V domains shown, Full-length human IgG4.P, kappa; also called M14.G11.P; G4 version of M14-G11) VH: EVQLLESGGGLVQPGGSLRLSCAASGFTFSNYPMYWVRQAPGKGLEWVSRISSSGGRTVYADSVKGRFTISRDNSKNTLYLQMNSLRAEDTAVYYCARDRWSRSAAEYGLGGYWGQGTLVTVSS VL: not shown",EC50 (read off the curve),human IGF-1R(1-903)-Fc [14],~0.05 nM
"M12-G04 Fab (Fab, V domains shown, Human kappa Fab from a phage library) VH: EVQLLESGGGLVQPGGSLRLSCAASGFTFSKYTMHWVRQAPGKGLEWVSSIVSSGGWTDYADSVKGRFTISRDNSKNTLYLQMNSLRAEDTAVYYCARDRSIAAAGTGWSVSFVDWFDPWGQGTLVTVSS VL: DIQMTQSPLSLSASVGDRVTITCRASQSINGYLNWYQQKPGKAPNLLIYATSSLQSGVPSRFSGSGSGTDFTLTISSLQPEDFATYYCQQSYSTPPYTFGQGTKLEIK",binding result,human INSR(28-956)-His10 [13],no binding (tested: about 5000 nM (baseline markers overlap))
"M13-C06 Fab (Fab, V domains shown, Human kappa Fab from a phage library) VH: EVQLLESGGGLVQPGGSLRLSCAASGFTFSIYRMQWVRQAPGKGLEWVSGISPSGGTTWYADSVKGRFTISRDNSKNTLYLQMNSLRAEDTAVYYCARWSGGSGYAFDIWGQGTMVTVSS VL: DIQMTQSPLSLSASVGDRVTITCQASRDIRNYLNWYQQKPGKAPKLLIYDASSLQTGVPSRFGGSGSGTDFSFTIGSLQPEDIATYYCQQFDSLPHTFGQGTKLEIK",Biacore Relative RUmax,hIGF-1R-Fc mutant SD015 [15],0.04
"M14-G11 Fab (Fab, V domains shown, Human kappa Fab (phage library, or papain digest of the full-length antibody)) VH: EVQLLESGGGLVQPGGSLRLSCAASGFTFSNYPMYWVRQAPGKGLEWVSRISSSGGRTVYADSVKGRFTISRDNSKNTLYLQMNSLRAEDTAVYYCARDRWSRSAAEYGLGGYWGQGTLVTVSS VL: not shown",fold loss in affinity against wild type,hIGF-1R-Fc mutant SD012,~3 fold
same,fold loss in affinity against wild type,hIGF-1R-Fc mutant SD008,~3 fold
"M14-C03.G4.P.agly (antibody, human IgG4 S228P, kappa, V domains shown, Aglycosylated human IgG4 (S228P, T299A), kappa; also called M14-C03_Ab) VH: EVQLLESGGGLVQPGGSLRLSCAASGFTFSKYMMSWVRQAPGKGLEWVSYISPSGGLTWYADSVKGRFTISRDNSKNTLYLQMNSLRAEDTAVYYCARDGARGYGMDVWGQGTTVTVSS VL: DIQMTQSPATLSLSPGERATLSCRASQSVSSYLAWYQQKPGQAPRLLIYDASNRATGIPARFSGSGSGTDFTLTISSLEPEDFAVYYCQQRSNWPPEVTFGPGTKVDIKR",binding result,hIGF-1R-Fc mutant SD109,no binding
same,binding result,hIGF-1R-Fc mutant SD104,no binding
same,binding result,hIGF-1R-Fc mutant SD015 [16],no binding
same,binding result,hIGF-1R-Fc mutant SD113,no binding
same,binding result,hIGF-1R-Fc mutant SD110,no binding
same,binding result,hIGF-1R-Fc mutant SD102,no binding
same,binding result,hIGF-1R-Fc mutant SD103,no binding
same,binding result,hIGF-1R-Fc mutant SD108,no binding
same,% IGF-1 inhibition upon antibody saturation,human IGF-1R(1-903)-Fc [3],19%
same,% IGF-2 inhibition upon antibody saturation,human IGF-1R(1-903)-Fc [6],21%
"M12-E01 Fab (Fab, V domains shown, Human lambda Fab from a phage library) VH: EVQLLESGGGLVQPGGSLRLSCAASGFTFSPYSMLWVRQAPGKGLEWVSSIGSSGGSTRYADSVKGRFTISRDNSKNTLYLQMNSLRAEDTAMYYCARVRGILHYDILIGRNLYYYYMDVWGKGTTVTVSS VL: QYELTQPPSVSEAPRQRVTISCSGSSSNIGNNAINWYQQLPGKPPKLLIYYDDLLPSGVSDRFSGSKSGTSGSLAISGLQSEDEADYYCAAWDDNLNGVIFGGGTKLTVL",binding result,human INSR(28-956)-His10 [17],no binding (tested: 2 µM)
